As usually defined, the stoichiometry N is a count of units in the complex or per binding partner. Broadly, the Kd is the equilibrium constant for the complex coming apart. The term koff denotes a measure of how fast the partners let go of each other. In general, kon refers to the second-order rate constant of association.

Test [1] addresses hIgG1-Fc-CL309/310CH-TP. Briefly: non-reducing SDS-PAGE (blot and Coomassie); 5 μg purified Fc on 4-12% bis-Tris gradient gels, non-reducing or reducing; blot with goat anti-human IgG or Coomassie blue.
For test [2], the target named is soluble recombinant human DC-SIGN tetramers (human) (UniProt Q9NNX6). Briefly: ELISA; binding to human DC-SIGN of Igs untreated or treated with PNGase F, Endo S or Endo H (Figure S8); format not told in the text shown. A general note: ELISA stands for enzyme-linked immunosorbent assay.
For test [3] the target is unchanged. Briefly: SPR; multichannel SPR (ProteOn XPR36); DC-SIGN or SIGNR1 amine-coupled on GLM chips; Ig preparations or gp120 as analytes, 25°C, 25 μl per minute; 1:1 Langmuir model. For orientation: Surface plasmon resonance follows binding to a sensor surface in real time, without labels.
For test [4], the target named is recombinant SIGNR1 (mouse) (UniProt Q8CJ91). Described as above.
The target of test [5] is T1, soluble recombinant human DC-SIGN tetramers (human, UniProt Q9NNX6 1-404).
T1 construct: human DC-SIGN, soluble recombinant; also called dendritic cell-specific intercellular adhesion molecule-3-grabbing non-integrin
T1 sequence (looked up): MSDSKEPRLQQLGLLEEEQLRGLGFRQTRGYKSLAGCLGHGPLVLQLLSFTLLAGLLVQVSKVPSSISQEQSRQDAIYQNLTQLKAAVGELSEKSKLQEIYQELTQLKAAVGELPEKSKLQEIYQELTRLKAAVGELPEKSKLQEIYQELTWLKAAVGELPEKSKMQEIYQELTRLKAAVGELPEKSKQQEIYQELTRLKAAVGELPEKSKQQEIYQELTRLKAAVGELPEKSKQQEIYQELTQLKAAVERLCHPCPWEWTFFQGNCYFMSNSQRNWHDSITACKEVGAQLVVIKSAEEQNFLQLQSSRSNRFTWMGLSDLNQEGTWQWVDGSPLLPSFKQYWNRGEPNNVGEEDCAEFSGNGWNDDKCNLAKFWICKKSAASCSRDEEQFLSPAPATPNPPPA
Described as above. The settings on record: both partners purified.

For test [6], the target named is T2, recombinant SIGNR1 (mouse, UniProt Q8CJ91 1-325).
T2 construct: mouse SIGNR1, soluble recombinant; also called the mouse orthologue of the human DC-SIGN; source: bought: R&D systems
T2 sequence (looked up): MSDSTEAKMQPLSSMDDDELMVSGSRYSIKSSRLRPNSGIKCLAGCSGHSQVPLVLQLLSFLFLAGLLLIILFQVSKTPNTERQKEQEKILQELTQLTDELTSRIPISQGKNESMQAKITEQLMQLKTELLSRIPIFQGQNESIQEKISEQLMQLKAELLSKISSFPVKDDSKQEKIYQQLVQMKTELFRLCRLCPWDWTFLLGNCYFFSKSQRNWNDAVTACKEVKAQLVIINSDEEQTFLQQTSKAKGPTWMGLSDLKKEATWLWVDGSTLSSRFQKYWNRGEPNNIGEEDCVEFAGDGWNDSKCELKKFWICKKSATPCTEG
The description is as above. The settings on record: both partners purified.

The molecule hIgG1-Fc-CL309/310CH-TP gave a stoichiometry N in test [1] of 6.

For the molecule PNGase F treated human IgM (antibody), in test [2], the residual binding was 50%.

Consider “hexameric-Fc (hexa-Fc), hIgG1-Fc-TP-LH309/310CL”, for which, in test [3], the Kd came to 1.26 µM, the koff was 0.000839 s⁻¹ and the kon stood at 668 M⁻¹ s⁻¹.

For recombinant HIV gp120 (natural protein), in test [4], the Kd turned out to be 0.00391 µM, the koff worked out at 9.46e-05 s⁻¹ and the kon was determined as 27700 M⁻¹ s⁻¹. Also, in test [3], the Kd was determined as 0.00439 µM, the koff amounted to 0.000158 s⁻¹ and the kon was found to be 36000 M⁻¹ s⁻¹.

B1: CHO cell derived recombinant (hexameric) IgM-Fc (domain or fragment)
chain: IAELPPKVSVFVPPRDGFFGNPRKSKLICQATGFSPRQIQVSWLREGKQVGSGVTTDQVQAEAKESGPTTYKVTSTLTIKESDWLGQSMFTCRVDHRGLTFQQNASSMCVPDQDTAIRVFAIPPSFASIFLTKSTKLTCLVTDLTTYDSVTISWTRQNGEAVKTHTNISESHPNATFSAVGEASICEDDWNSGERFTCTVTHTDLPSPLKQTISRPKGVALHRPDVYLLPPAREQLNLRESATITCLVTGFSPADVFVQWMQRGQPLSPEKYVTSAPMPEPQAPGRYFAHSILTVSEEEWNTGETYTCVVAHEALPNRVTERTVDKSTGKPTLYNVSLVMSDTAGTCY
modifications: CHO-cell N-glycans; disulfide-linked hexamer. Limits taken as Cmu2-Cmu4 plus tailpiece; needs the secreted isoform (453 aa), not the 474-aa membrane form displayed as P01871
In the case of B1, the Kd in test [5] came out at 0.26 µM; in test [6] it was 2.2 µM.

These data come from publication PMC5224519, “Developing the IVIG biomimetic, Hexa-Fc, for drug and vaccine applications” (Scientific Reports, 2015).
